These results are taken from paper doi:10.1101/2022.10.04.510906 (bioRxiv, 2022).

The target of the test is T1, V/A-ATPase D subunit (Thermus thermophilus, UniProt O87880 1-223).
T1 sequence: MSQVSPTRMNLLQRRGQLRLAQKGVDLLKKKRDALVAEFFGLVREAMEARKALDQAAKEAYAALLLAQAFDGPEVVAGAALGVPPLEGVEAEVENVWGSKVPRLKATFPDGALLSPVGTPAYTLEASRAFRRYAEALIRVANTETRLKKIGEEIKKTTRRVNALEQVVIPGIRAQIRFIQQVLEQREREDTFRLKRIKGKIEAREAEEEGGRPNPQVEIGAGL
The experiment in a line: cryo-EM structure.

B1: V/A-ATPase F subunit (natural protein, Thermus thermophilus)
chain: MAVIADPETAQGFRLAGLEGYGASSAEEAQSLLETLVERGGYALVAVDEALLPDPERAVERLMRGRDLPVLLPIAGLKEAFQGHDVEGYMRELVRKTIGFDIKL
Consider B1, for which the binding result is given as “binds”.
